Reference: patent US20220041658A1 (PROTAGONIST THERAPEUTICS, published 2022)
Positions of bridges follow the written chain, without caps; N, C: chain ends. Non-standard residues stand in square brackets, D forms with d. Trp(7-Me) = Cc1cccc2c(C[C@H](N)C(=O)O)c[nH]c12; Trp(2-Me) = Cc1[nH]c2ccccc2c1C[C@H](N)C(=O)O; 2Nal = N[C@@H](Cc1ccc2ccccc2c1)C(=O)O; AEF = NCCOc1ccc(C[C@H](N)C(=O)O)cc1; Cit = NC(=O)NCCC[C@H](N)C(=O)O; αMeL = CC(C)C[C@](C)(N)C(=O)O; Pen = CC(C)(S)[C@H](N)C(=O)O; αMeK = C[C@](N)(CCCCN)C(=O)O; βAla = NCCC(=O)O

T1: interleukin-23 receptor (IL-23R) (human, UniProt Q5VWK5 24-629)
T1 sequence (looked up): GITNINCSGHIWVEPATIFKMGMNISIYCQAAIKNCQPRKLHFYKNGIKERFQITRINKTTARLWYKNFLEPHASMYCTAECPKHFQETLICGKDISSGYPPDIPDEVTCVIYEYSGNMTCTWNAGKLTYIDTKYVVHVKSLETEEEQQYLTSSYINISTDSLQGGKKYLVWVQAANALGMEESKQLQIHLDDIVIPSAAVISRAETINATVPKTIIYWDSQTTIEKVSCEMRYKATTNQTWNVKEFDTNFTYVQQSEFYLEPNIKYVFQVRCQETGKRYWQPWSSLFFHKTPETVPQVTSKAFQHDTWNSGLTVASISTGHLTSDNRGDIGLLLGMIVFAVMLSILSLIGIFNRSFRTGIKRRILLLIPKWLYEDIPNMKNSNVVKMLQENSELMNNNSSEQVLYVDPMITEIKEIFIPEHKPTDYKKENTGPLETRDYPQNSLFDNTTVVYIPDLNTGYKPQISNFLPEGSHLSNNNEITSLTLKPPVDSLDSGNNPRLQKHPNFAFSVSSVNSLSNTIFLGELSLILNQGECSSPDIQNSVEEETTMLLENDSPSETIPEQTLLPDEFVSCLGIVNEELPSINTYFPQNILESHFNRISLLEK

B1: Peptide of SEQ ID NO: 223 (peptide)
peptide: XNTXQXXXXKXX
modifications: Ac-[Pen]-NT-[W(7-Me)]-Q-[Pen]-Phe[4-(2-aminoethoxy)]-[2-Nal]-[a-MeLeu]-[Lys(Ac)]-[N-MeAla]-[bA]-NH2; Pen-Pen disulfide
B2: Peptide of SEQ ID NO: 226 (peptide)
peptide: XNTXQXXXXKXX
modifications: Ac-[Pen]-NT-[W(7-Me)]-Q-[Pen]-Phe[4-(2-aminoethoxy)]-[2-Nal]-[a-MeLeu]-[Lys(Ac)]-[bA]-[bA]-NH2; Pen-Pen disulfide
B3: Peptide of SEQ ID NO: 362 (peptide)
peptide: XNTXKXXXXXNL
modifications: Ac-[Pen]-N-T-[W(7-Me)]-[Lys(Ac)]-[Pen]-Phe[4-(2-aminoethoxy)]-[2-Nal]-[a-MeLys]-[Lys(PEG3-OMe)]-N-[(D)Leu]-NH2; Pen-Pen disulfide
B4: Peptide of SEQ ID NO: 234 (peptide)
peptide: XNTXXXXXXKNX
modifications: Ac-[Pen]-NT-[W(7-Me)]-[a-MeLys]-[Pen]-Phe[4-(2-aminoethoxy)]-[2-Nal]-[a-MeLeu]-[Lys(Ac)]-N-[bA]-NH2; Pen-Pen disulfide
B5: Peptide of SEQ ID NO: 361 (peptide)
peptide: XNTXKXXXXXNL
modifications: Ac-[Pen]-N-T-[W(7-Me)]-[Lys(Ac)]-[Pen]-Phe[4-(2-aminoethoxy)]-[2-Nal]-[a-MeLys]-[Lys(valeric)]-N-[(D)Leu]-NH2; Pen-Pen disulfide
B6: Peptide of SEQ ID NO: 353 (peptide)
peptide: Ac-[Pen]NT[Trp(7-Me)]K(Ac)[Pen][AEF][Trp(2-Me)][αMeK]K(Ac)N[dK]-NH2
modifications: disulfide 1-6 (inferred)
B7: Peptide of SEQ ID NO: 355 (peptide)
peptide: XNTXKXXXXXNL
modifications: Ac-[Pen]-N-T-[W(7-Me)]-[Lys(Ac)]-[Pen]-Phe[4-(2-aminoethoxy)]-[2-Nal]-[a-MeLys]-[Lys(Ala)]-N-[(D)Leu]-NH2; Pen-Pen disulfide
B8: Peptide of SEQ ID NO: 259 (peptide)
peptide: Ac-[Pen]NT[Trp(7-Me)][Cit][Pen][AEF][2Nal][αMeK]K(Ac)N[dY]-NH2
modifications: disulfide 1-6
SMILES: CC(=O)NCCCC[C@H](NC(=O)[C@](C)(CCCCN)NC(=O)[C@H](Cc1ccc2ccccc2c1)NC(=O)[C@H](Cc1ccc(OCCN)cc1)NC(=O)[C@H]1NC(=O)[C@H](CCCNC(N)=O)NC(=O)[C@H](Cc2c[nH]c3c(C)cccc23)NC(=O)[C@H]([C@@H](C)O)NC(=O)[C@H](CC(N)=O)NC(=O)[C@@H](NC(C)=O)C(C)(C)SSC1(C)C)C(=O)N[C@@H](CC(N)=O)C(=O)N[C@H](Cc1ccc(O)cc1)C(N)=O
B9: Peptide of SEQ ID NO: 218 (peptide)
peptide: XNTXQXXXXKTX
modifications: Ac-[Pen]-NT-[W(7-Me)]-Q-[Pen]-Phe[4-(2-aminoethoxy)]-[2-Nal]-[a-MeLeu]-[Lys(Ac)]-[(D)Thr]-[bA]-NH2; Pen-Pen disulfide
B10: Peptide of SEQ ID NO: 363 (peptide)
peptide: XNTXKXXXXXNL
modifications: Ac-[Pen]-N-T-[W(7-Me)]-[Lys(Ac)]-[Pen]-Phe[4-(2-aminoethoxy)]-[2-Nal]-[a-MeLys]-[Lys(PEG11-OMe)]-N-[(D)Leu]-NH2; Pen-Pen disulfide
B11: Peptide of SEQ ID NO: 358 (peptide)
peptide: XNTXKXXXXXNL
modifications: Ac-[Pen]-N-T-[W(7-Me)]-[Lys(Ac)]-[Pen]-Phe[4-(2-aminoethoxy)]-[2-Nal]-[a-MeLys]-[Lys(octanoic)]-N-[(D)Leu]-NH2; Pen-Pen disulfide
B12: Peptide of SEQ ID NO: 221 (peptide)
peptide: XNTXQXXXXKSX
modifications: Ac-[Pen]-NT-[W(7-Me)]-Q-[Pen]-Phe[4-(2-aminoethoxy)]-[2-Nal]-[a-MeLeu]-[Lys(Ac)]-S-[bA]-NH2; Pen-Pen disulfide
B13: Peptide of SEQ ID NO: 206 (peptide)
peptide: XNTXQXXXXKXX
modifications: Ac-[Pen]-NT-[W(7-Me)]-Q-[Pen]-Phe[4-(2-aminoethoxy)]-[2-Nal]-[a-MeLeu]-[Lys(Ac)]-[Cit]-[bA]-NH2; Pen-Pen disulfide
B14: Peptide of SEQ ID NO: 354 (peptide)
peptide: XNTXKXXXXKNN
modifications: Ac-[Pen]-N-T-[W(7-Me)]-[Lys(Ac)]-[Pen]-Phe[4-(2-aminoethoxy)]-[2-Nal]-[a-MeLeu]-[Lys(Ac)]-N-[(D)Asn]-NH2; Pen-Pen disulfide
B15: Peptide of SEQ ID NO: 239 (peptide)
peptide: XKTXQXXXXKNX
modifications: Ac-[Pen]-[Lys(Ac)]-T-[W(7-Me)]-Q-[Pen]-Phe[4-(2-aminoethoxy)]-[2-Nal]-[a-MeLys]-[Lys(Ac)]-N-[bA]-NH2; Pen-Pen disulfide
B16: Peptide of SEQ ID NO: 356 (peptide)
peptide: XNTXKXXXXXNL
modifications: Ac-[Pen]-N-T-[W(7-Me)]-[Lys(Ac)]-[Pen]-Phe[4-(2-aminoethoxy)]-[2-Nal]-[a-MeLys]-[Lys(IVA)]-N-[(D)Leu]-NH2; Pen-Pen disulfide
B17: Peptide of SEQ ID NO: 357 (peptide)
peptide: XNTXKXXXXXNL
modifications: not fully specified; Ac-[Pen]-N-T-[W(7-Me)]-[Lys(Ac)]-[Pen]-Phe[4-(2-aminoethoxy)]-[2-Nal]-[a-MeLys]-[Lys(cyclohexyl)]-N-[(D)Leu]-NH2; Pen-Pen disulfide
B18: Peptide of SEQ ID NO: 224 (peptide)
peptide: XNTXQXXXXKXX
modifications: Ac-[Pen]-NT-[W(7-Me)]-Q-[Pen]-Phe[4-(2-aminoethoxy)]-[2-Nal]-[a-MeLeu]-[Lys(Ac)]-[Sarc]-[bA]-NH2; Pen-Pen disulfide
B19: Peptide of SEQ ID NO: 214 (peptide)
peptide: XNTXQXXXXKHX
modifications: Ac-[Pen]-NT-[W(7-Me)]-Q-[Pen]-Phe[4-(2-aminoethoxy)]-[2-Nal]-[a-MeLeu]-[Lys(Ac)]-H-[bA]-NH2; Pen-Pen disulfide
B20: Peptide of SEQ ID NO: 235 (peptide)
peptide: Ac-[Pen]NT[Trp(7-Me)][αMeL][Pen][AEF][2Nal][αMeK]K(Ac)N[βAla]-NH2
modifications: disulfide 1-6
B21: Peptide of SEQ ID NO: 216 (peptide)
peptide: XNTXQXXXXKIX
modifications: Ac-[Pen]-NT-[W(7-Me)]-Q-[Pen]-Phe[4-(2-aminoethoxy)]-[2-Nal]-[a-MeLeu]-[Lys(Ac)]-I-[bA]-NH2; Pen-Pen disulfide

What was measured:
[1] = molecular target: T1, interleukin-23 receptor (IL-23R); assay: cell-based or functional assay
[2] = molecular target: T1, interleukin-23 receptor (IL-23R); assay: cell-based or functional assay; remark: listed apart in the source

Binder | pStat3 HTRF IC50 [1] | NK Cell Assay IC50 [2]
B1 | 134 nM | 8.3 nM
B2 | 25.7 nM | 9.55 nM
B3 | 0.107 nM | 3.81 nM
B4 | 3.48 nM | 7.7 nM
B5 | 0.596 nM | 1.47 nM
B6 | 0.715 nM | 7.1 nM
B7 | 0.456 nM | 5.34 nM
B8 | 0.607 nM | 7.6 nM
B9 | 11 nM | 50.2 nM
B10 | 0.446 nM | 4.36 nM
B11 | 3.03 nM | 6.3 nM
B12 | 1.27 nM | 5.5 nM
B13 | 12 nM | 21.4 nM
B14 | 0.283 nM | 1.62 nM
B15 | 1.66 nM | 4.1 nM
B16 | 0.193 nM | 4.01 nM
B17 | 0.331 nM | 3.8 nM
B18 | 124 nM | > 500 nM
B19 | 1.53 nM | 6.3 nM
B20 | 3.21 nM | 10.2 nM
B21 | 13.5 nM | > 500 nM
